Assay [1] deals with T1, human CD19 (human, UniProt P15391 20-556).
T1 sequence (looked up): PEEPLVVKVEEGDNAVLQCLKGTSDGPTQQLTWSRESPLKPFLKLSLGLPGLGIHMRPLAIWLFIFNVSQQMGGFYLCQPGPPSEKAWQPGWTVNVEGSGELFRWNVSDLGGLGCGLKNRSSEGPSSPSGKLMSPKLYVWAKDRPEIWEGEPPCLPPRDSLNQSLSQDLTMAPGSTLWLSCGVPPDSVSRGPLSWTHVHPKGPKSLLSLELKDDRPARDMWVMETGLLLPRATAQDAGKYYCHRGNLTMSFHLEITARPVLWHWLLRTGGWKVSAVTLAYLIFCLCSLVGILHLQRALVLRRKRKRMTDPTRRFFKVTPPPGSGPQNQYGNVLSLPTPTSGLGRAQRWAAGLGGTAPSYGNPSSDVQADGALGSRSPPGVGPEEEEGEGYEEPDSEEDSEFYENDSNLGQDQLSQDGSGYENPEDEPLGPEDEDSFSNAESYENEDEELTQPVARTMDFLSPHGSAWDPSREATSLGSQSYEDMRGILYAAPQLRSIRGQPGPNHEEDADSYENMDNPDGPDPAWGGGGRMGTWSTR
Description: cell-based or functional assay.

A further assay addresses T2, human CD3 (human, UniProt P07766 23-207).
T2 construct: whole, on cells; On cells CD3 stands as the full CD3/TCR complex; also called CD3 on Jurkat cells
As to the kind of experiment: flow cytometry on Jurkat cells. In general terms: A flow cytometer gives signals particle by particle.

Assay [2] deals with T1, human CD19. As to the kind of experiment: flow cytometry on Ramos cells.

T2 sequence (P07766 23-207): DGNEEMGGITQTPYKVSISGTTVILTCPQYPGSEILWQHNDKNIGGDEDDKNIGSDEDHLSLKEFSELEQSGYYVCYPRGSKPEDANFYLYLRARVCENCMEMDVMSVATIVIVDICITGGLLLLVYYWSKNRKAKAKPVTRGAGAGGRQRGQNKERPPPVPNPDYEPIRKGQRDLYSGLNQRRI

B1: W3438-T3U4.F16-1.uIgG4.SP (bispecific antibody)
light 1: DIVMTQSPDSLAVSLGERATINCKSSQSLLNSRTRKNYLAWYQQKPGQPPKLLIYWASTRQSGVPDRFSGSGSGTDFTLTISSLQAEDVAVYYCTQSHTLRTFGGGTKVEIKPDIQNPDPAVYQLRDSKSSDKSVCLFTDFDSQTQVSQSKDSDVYITDKCVLDMRSMDFKSNSAVAWSQKSDFACANAFQNSIIPEDTFFPSPESS
heavy 1: QVQLVQSGAEVKKPGSSVKVSCKASGFAFTDYYIHWVRQAPGQGLEWMGWISPGNVNTKYNENFKGRVTITADKSTSTAYMELSSLRSEDTAVYYCARDGYSLYYFDYWGQGTLVTVLEDLKNVFPPEVAVFEPSEAEISHTQKATLVCLATGFYPDHVELSWWVNGKEVHSGVCTDPQPLKEQPALQDSRYALSSRLRVSATFWQNPRNHFRCQVQFYGLSENDEWTQDRAKPVTQIVSAEAWGRYGPPCPPCPAPEFLGGPSVFLFPPKPKDTLMISRTPEVTCVVVDVSQEDPEVQFNWYVDGVEVHNAKTKPREEQFNSTYRVVSVLTVLHQDWLNGKEYKCKVSNKGLPSSIEKTISKAKGQPREPQVYTLPPCQEEMTKNQVSLWCLVKGFYPSDIAVEWESNGQPENNYKTTPPVLDSDGSFFLYSRLTVDKSRWQEGNVFSCSVMHEALHNHYTQKSLSLSLGK
light 2: DIQLTQSPSFLSASVGDRVTITCSASSTVNYMHWYQQKPGKAPKLLIYSTSNLASGVPSRFSGSGSGTEFTLTISSLQPEDFATYYCHQWSSYPYTFGQGTKLEIKRTVAAPSVFIFPPSDEQLKSGTASVVCLLNNFYPREAKVQWKVDNALQSGNSQESVTEQDSKDSTYSLSSTLTLSKADYEKHKVYACEVTHQGLSSPVTKSFNRGEC
heavy 2: QMQLVQSGPEVKKPGTSVKVSCKASGYAFTSYNMYWVRQARGQRLEWIGYIDPYNGDTTYNQKFKGRVTITRDMSTSTAYMELSSLRSEDTAVYYCLTTAYAMDYWGQGTLVTVSSASTKGPSVFPLAPCSRSTSESTAALGCLVKDYFPEPVTVSWNSGALTSGVHTFPAVLQSSGLYSLSSVVTVPSSSLGTKTYTCNVDHKPSNTKVDKRVGGGGSGGGGSQMQLVQSGPEVKKPGTSVKVSCKASGYAFTSYNMYWVRQARGQRLEWIGYIDPYNGDTTYNQKFKGRVTITRDMSTSTAYMELSSLRSEDTAVYYCLTTAYAMDYWGQGTLVTVSSASTKGPSVFPLAPCSRSTSESTAALGCLVKDYFPEPVTVSWNSGALTSGVHTFPAVLQSSGLYSLSSVVTVPSSSLGTKTYTCNVDHKPSNTKVDKRVESKYGPPCPPCPAPEFLGGPSVFLFPPKPKDTLMISRTPEVTCVVVDVSQEDPEVQFNWYVDGVEVHNAKTKPREEQFNSTYRVVSVLTVLHQDWLNGKEYKCKVSNKGLPSSIEKTISKAKGQPREPQVCTLPPSQEEMTKNQVSLSCAVKGFYPSDIAVEWESNGQPENNYKTTPPVLDSDGSFFLVSRLTVDKSRWQEGNVFSCSVMHEALHNHYTQKSLSLSLGK
notes: also called WuXiBody
For orientation: EC50 means the concentration giving half of the maximal effect. Low readings indicate higher potency in that assay, high ones lower potency in that assay. Take B1: the “cytotoxic activity on Raji cells with CD8+ T cells, EC50” value in the assay with human CD19 [1] is 3.2 nM. Moreover, the values for the EC50 with human CD3 and in the assay with human CD19 [2] were 19.3 nM and 1.8 nM, respectively.
